This experiment has as its target glutamate-1-semialdehyde aminotransferase (GSAAT), endogenous (Arabidopsis thaliana (endogenous in leaf extracts; the plant of the chloroplast extracts is not named)) (UniProt P42799). Kind of experiment: non-reducing SDS-PAGE with immunoblot; wild-type Arabidopsis leaf extracts, untreated or pretreated with H2O2, diamide or DTT for 30 min at room temperature; non-reducing 8% SDS-PA gel (the text says non-denaturing PA gel); GSAAT-specific antibody.

Chain of glutamate-1-semialdehyde aminotransferase (GSAAT), endogenous (P42799 39-474): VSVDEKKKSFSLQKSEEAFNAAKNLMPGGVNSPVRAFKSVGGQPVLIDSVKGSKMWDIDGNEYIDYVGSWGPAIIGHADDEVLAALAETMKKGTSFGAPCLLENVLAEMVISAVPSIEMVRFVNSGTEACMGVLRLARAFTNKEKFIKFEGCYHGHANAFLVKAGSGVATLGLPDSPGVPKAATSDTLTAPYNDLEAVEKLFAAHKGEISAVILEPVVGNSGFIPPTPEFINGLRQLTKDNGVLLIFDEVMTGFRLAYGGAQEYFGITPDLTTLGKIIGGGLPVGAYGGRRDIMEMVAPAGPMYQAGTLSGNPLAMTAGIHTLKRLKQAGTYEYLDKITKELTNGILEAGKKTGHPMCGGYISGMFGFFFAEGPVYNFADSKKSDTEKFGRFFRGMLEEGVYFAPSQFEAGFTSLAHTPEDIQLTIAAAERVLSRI

As usually defined, the stoichiometry N is a count of units in the complex or per binding partner. As to “glutamate-1-semialdehyde aminotransferase (GSAAT), endogenous (from UniProt P42799 39-474) (enzyme)”, the stoichiometry N was 2.

The record behind these values is paper PMC12678314.
